Data: paper PMC8102632
One block for each substance: values may come before it.

Key:
[1] = target: Thiomicrospira Cas2 (Thiomicrospira); assay: cryo-EM structure; 50 uM Cas6-RT-Cas1, 50 uM Cas2 and 12.5 uM half-site DNA substrate dialysed into 10 mM HEPES pH 7.5, 5 mM EDTA, 500 mM KCl, 0.5 mM TCEP, 0.5% glycerol; purified over Superose 6 Increase; single particle cryo-EM; no density seen for the DNA
[2] = target: Thiomicrospira Cas6-RT-Cas1 RT-K574A mutant (Thiomicrospira)
[3] = target: Thiomicrospira Cas6-RT-Cas1 fusion protein (Thiomicrospira); assay: cryo-EM structure; 50 uM Cas6-RT-Cas1, 50 uM Cas2 and 12.5 uM half-site DNA substrate dialysed into 10 mM HEPES pH 7.5, 5 mM EDTA, 500 mM KCl, 0.5 mM TCEP, 0.5% glycerol; purified over Superose 6 Increase; single particle cryo-EM; no density seen for the DNA

stoichiometry N [1]: 2
Substance: Thiomicrospira Cas2 (natural protein)

ligation of ssRNA protospacer into pCRISPR by the mutant Cas6-RT-Cas1—Cas2 complex relative to WT (RT-helix of one protomer with Cas1a of another) [2]: > 80 % reduction
Substance: Thiomicrospira Cas6-RT-Cas1 RT-K574A mutant (enzyme)

stoichiometry N [3]: 2
Substance: Thiomicrospira Cas6-RT-Cas1 fusion protein (enzyme)
